Test results reported in US20250388643A1, “GLUCAGON-LIKE PEPTIDE-2 COMPOSITIONS AND METHODS OF MAKING AND USING SAME” (Amunix Pharmaceuticals, Inc., priority 2011, published 2025).
Like-named read-outs stand apart in the source and are kept apart here.

Legend:
[1] = Analytical size exclusion HPLC of GLP2-2G-XTEN (apparent molecular weight); assay type: physicochemical
Description: Gel filtration analysis was performed using a Phenomenex BioSep-SEC-s4000 (7.8 mm×600 mm) column. 20 μg or AP690 GLP2-2G-XTEN fusion protein were analyzed at a flowrate of 0.5 ml/min with 50 mM Phosphate pH 6.5, 300 mM NaCl mobile phase. Elution was monitored using OD215 nm. Column calibration was performed using a size exclusion check standard from Phenomenex, with the following markers: thyroglobulin (670 kDa), IgG (156 kDa), BSA (66 kDa) and ovalbumin ([…]). The result (FIG. 11B) indicated an apparent molecular weight of 1002 kDa for the fusion protein of 83.1 kDa actual weight, for an apparent molecular weight factor of […].

[2] = cynomolgus monkey, in vivo
Description: The fusion protein GLP2-2G-XTEN_AE864 was evaluated for its pharmacokinetic properties in male cynomolgus monkeys following either subcutaneous or intravenous administration of the fusion protein at a single dosage level. Three male cynomolgus monkeys were injected IV and 3 male cynomolgus monkeys were injected SC with 2 mg/kg (25 nmol/kg) GLP2-2G-XTEN at time 0. Blood samples were collected from each monkey into prechilled heparinized tubes at pre-dose and at approximately 0.083 h (5 min), 1, 2, 4, 8, 24, 48, 72, 96, 120, 168, 216, 264, and 336 hours after administration of the fusion protein for the first phase of the study. Animals were allowed to “wash-out” for a 6 week period (4 weeks post-last collection time point of Phase 1), the groups were crossed over (SC to IV and IV to SC), and dosed again with the same dose of GLP2-2G-XTEN fusion protein. Blood samples were collected at pre-dose and at approximately 0.083 h (5 min), 1, 2, 4, 8, 24, 48, 72, 96, 120, 168, 216, 264, 336, 384, 432, and 504 hours post-dose in the second phase of the study. All blood samples were processed into plasma by centrifugation and split into two aliquots for analysis by ELISA. The samples were analyzed for fusion protein concentration, performed by anti-GLP2/anti-XTEN ELISA (AS1705) and the results were analyzed using WinNonLin to obtain the PK parameters.

[3] = tested on: indomethacin-induced intestinal inflammation in Wistar rats; assay type: in vivo, rat
Description: Study 2: Intestinal inflammation was induced in eighty male Wistar rats (Harlan Sprague Dawley) using indomethacin administered on Days 0 and 1 of the experiment. The rats were divided into eight treatment groups for treatment according to Table 20. All treatments were administered per the schedule starting on Day-3 of the experiment. Body weights were determined daily. On Day 2 (24 hours post-2nd indomethacin dose), the animals were prepped for sacrifice and analysis. Thirty minutes prior to sacrifice, the rats were injected intravenously with 1 ml 1% Evans Blue dye, in order to visualize ulcers and extent of inflammation by histopathology analysis. The rats were anesthetized and blood samples were removed to determine the concentration of GLP-2-2G-XTEN using the anti-XTEN/anti-GLP2 ELISA method. The rats were euthanized then necropsied and scored by gross examination of the intestines for the presence of adhesions; i.e., none=0, mild=1, moderate=2, or severe=3. The small intestines were removed and the length of each was recorded. In each small intestine, a longitudinal incision was made and the interior was examined. The degree and length of the ulcerated area was recorded as a score; i.e., none=0, few=1, multiple=2, or continuous=3. The fecal material was washed away with saline and blotted to remove excess fluid and each small intestine was weighed then processed for histopathology examination to quantitate the degree of inflammation; i.e., 0.0%=0, 1-33%=1, 34-66%=2, 67-100%=3.

[4] = rat, in vivo
Description: The fusion protein GLP2-2G-XTEN_AE864 was evaluated for its pharmacokinetic properties in Wistar rats following SC administration of two different dosage levels. Prior to the experiment, catheters were surgically implanted into the jugular vein of female Wistar rats. The catheterized animals were randomized into two groups containing three rats each. The fusion protein GLP2-2G-XTEN (lot AP510) was administered to each rat via SC injection as follows: 1) Low Dose 2 mg/kg (25 nmol/kg); or 2) High Dose 16 mg/kg (200 nmol/kg). Blood samples (˜0.2 mL) were collected through the jugular vein catheter from each rat into prechilled heparinized tubes at pre-dose, 0.08, 4, 8, 24, 48, 72, 96, 120 and 168 hours after test compound administration (10 time points). Blood was processed into plasma by centrifugation, split into two aliquots for analysis by ELISA. The samples were analyzed for fusion protein concentration, performed by both anti-XTEN/anti-XTEN sandwich ELISA (AS1602) and anti-GLP2/anti-XTEN sandwich ELISA (AS1705) and the results were analyzed using WinNonLin to obtain the PK parameters. Terminal half life was fit from 48 to 168 hours.

[5] = tested on: DSS-induced intestinal colitis in C57Bl/6 mice; assay: Murine acute DSS-induced colitis model; assay type: in vivo, mouse
Description: To determine the efficacy of GLP2-XTEN, the GLP2-2G-XTEN-AE864 fusion protein was evaluated in a mouse model of intestinal inflammatory colitis. […] A naïve, non-treated control group (group 1) was given normal drinking water for the duration of the experiment. […] Tissues were fixed in formalin and then transferred to ethanol for staining and histopathology. The anatomical data was analyzed with an ANOVA model with a Tukey/Kramer post-hoc test for pairwise comparisons, with significance at p=0.05.

B1: GLP2-2G-XTEN_AE864: fusion protein of GLP-2 with glycine at position 2 linked at the C-terminus to XTEN AE864; sequence of FIG. 28 (SEQ ID NO: 798) (protein)
chain: HGDGSFSDEMNTILDNLAARDFINWLIQTKITDGGSPAGSPTSTEEGTSESATPESGPGTSTEPSEGSAPGSPAGSPTSTEEGTSTEPSEGSAPGTSTEPSEGSAPGTSESATPESGPGSEPATSGSETPGSEPATSGSETPGSPAGSPTSTEEGTSESATPESGPGTSTEPSEGSAPGTSTEPSEGSAPGSPAGSPTSTEEGTSTEPSEGSAPGTSTEPSEGSAPGTSESATPESGPGTSTEPSEGSAPGTSESATPESGPGSEPATSGSETPGTSTEPSEGSAPGTSTEPSEGSAPGTSESATPESGPGTSESATPESGPGSPAGSPTSTEEGTSESATPESGPGSEPATSGSETPGTSESATPESGPGTSTEPSEGSAPGTSTEPSEGSAPGTSTEPSEGSAPGTSTEPSEGSAPGTSTEPSEGSAPGTSTEPSEGSAPGSPAGSPTSTEEGTSTEPSEGSAPGTSESATPESGPGSEPATSGSETPGTSESATPESGPGSEPATSGSETPGTSESATPESGPGTSTEPSEGSAPGTSESATPESGPGSPAGSPTSTEEGSPAGSPTSTEEGSPAGSPTSTEEGTSESATPESGPGTSTEPSEGSAPGTSESATPESGPGSEPATSGSETPGTSESATPESGPGSEPATSGSETPGTSESATPESGPGTSTEPSEGSAPGSPAGSPTSTEEGTSESATPESGPGSEPATSGSETPGTSESATPESGPGSPAGSPTSTEEGSPAGSPTSTEEGTSTEPSEGSAPGTSESATPESGPGTSESATPESGPGTSESATPESGPGSEPATSGSETPGSEPATSGSETPGSPAGSPTSTEEGTSTEPSEGSAPGTSTEPSEGSAPGSEPATSGSETPGTSESATPESGPGTSTEPSEGSAPG
apparent molecular weight ([1]; SEC, BioSep-SEC-s4000, 50 mM Phosphate pH 6.5, 300 mM NaCl, lot AP690): 1002 kDa | apparent molecular weight factor ([1]; apparent vs 83.1 kDa actual weight): 12.5 | Cl [2]: 1.6 mL/h | T ½ [2]: 125 h | Vd [2]: 0.098 L/kg | AUCInf ([2]; iv, 2 mg/kg): 3,700,000 hr * ng/mL | Cl ([2]; iv, 2 mg/kg): 1.9 mL/h | T ½ ([2]; iv, 2 mg/kg): 110.0 h | Vd ([2]; iv, 2 mg/kg): 0.09 L/kg | AUCInf ([2]; sc, 2 mg/kg): 3,400,000 hr * ng/mL | T ½ ([2]; sc, 2 mg/kg): 120.0 h | Vd ([2]; sc, 2 mg/kg): 0.11 L/kg | protection of the intestines from inflammatory effects of indomethacin ([3]; conclusion of the experiment): provided significant protection to the intestines from the inflammatory effects of indomethacin | histopathology: protective effects ([3]; daily bid peptide, once-daily fusion protein): most pronounced in the ileum, but were also seen in the jejunum | efficacy by regimen ([3]; daily dosing at 2 mg/kg): greatest efficacy | adhesions score ([3]; once-daily fusion protein, daily bid peptide, FIG. 22B): nearly complete protection from adhesions | small intestine length ([3]; once-daily fusion protein, daily bid peptide, vs indomethacin-treated vehicle control): reached statistically significant difference | total disease score ([3]; peptide delivered bid, fusion protein delivered qd, vs indomethacin-treated vehicle control): significantly improved scores | fusion protein in blood samples (anti-XTEN/anti-GLP2 ELISA) ([3]; rat, in vivo): detectable at Day 2 in all animals of Group 4 and Group 8, and three rats in Group 7 | total disease score ([3]; single doses at 6 or 2 mg/kg, vs indomethacin-treated vehicle control): significantly improved scores | efficacy by regimen ([3]; single doses of 6 mg/kg or 2 mg/kg): significant efficacy in some parameters | adhesions score ([3]; single high-dose 6 mg/kg): reached statistically significant difference | Cl [4]: 0.80 mL/h | T ½ [4]: 43.6 h | Vd [4]: 0.21 L/kg | terminal half-life ([4]; sc): 37.5 to 49.7 h | AUCInf ([4]; sc, 2 mg/kg): 530 µg·h/mL | Vz ([4]; sc, 2 mg/kg): 43.4 mL | histopathology of small intestine ([5]; DSS-treated mice, 6 mg/kg qd): normal mucosal architecture with elongated villi densely populated with columnar epithelial and goblet cells | loss of body weight ([5]; DSS-treated mice, SC days 1-10, peptide BID, fusion protein QD, any dose): neither the mice treated with GLP2-2G peptide nor any of the groups of mice treated with any dose of GLP2-2G-XTEN mice showed a reduced loss of body weight | protection of the intestines from inflammatory effects of DSS ([5]; conclusion of the experiment): protected the intestines from the inflammatory effects of DSS, with maintenance of normal villi and mucosal architecture | small intestine weight ([5]; high dose group (6 mg/kg), compared to control groups 1 and 2, day 10): increase in small intestine weight | small intestine weight ([5]; medium dose group (2 mg/kg), compared to group 1, day 10): increase in small intestine weight
